From article PMC9791688, “Bioluminescence Goes Dark: Boosting the Performance of Bioluminescent Sensor Proteins Using Complementation Inhibitors” (ACS Sensors, 2022)

Molecular target: T1, LgBiT (C-terminal GTTSA linker and Strep-tag (WSHPQFEK) omitted)
T1 chain: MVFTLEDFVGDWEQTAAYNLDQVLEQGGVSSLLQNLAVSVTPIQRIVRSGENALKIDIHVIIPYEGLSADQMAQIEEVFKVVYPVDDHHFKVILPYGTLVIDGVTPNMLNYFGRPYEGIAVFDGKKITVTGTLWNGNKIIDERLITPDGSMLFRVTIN
Experiment: split reporter (BiFC, NanoBiT); competition: DarkBiT101 titrated to 75 pM SmBiT86 and 0.75 nM LgBiT, loss of luminescence; 1x PBS, 0.02% Tween20, 4 °C for 16 h before addition of 1:1000 NanoGlo
Settings: both partners purified

B1: DarkBiT101 peptide (peptide)
peptide: VTGYALFEKES
B1 was tested, and the Ki was 2600 ± 400 nM.
